Columns and labels:
[1] = molecular target: T1, CHI3L1-6his(pcDNA3.1，在293T细胞中过表达的完整人CHI3L1) (human, UniProt P36222 22-383); assay: CBA, immunofluorescence on acetone-fixed 293T cells overexpressing CHI3L1-6his
T1 construct: whole, on cells; CBA / immunofluorescence target: transfected, acetone-fixed 293T cells; also called 完整CHI3L1序列; 过表达CHI3L1蛋白的细胞; not shown: 6his tag

[2] = molecular target: T1, CHI3L1-6his(pcDNA3.1，在293T细胞中过表达的完整人CHI3 …; assay: immunofluorescence on transfected, acetone-fixed 293T cells
[3] = molecular target: T2, Q CHI3L1-329-346-6his(缺失329-346片段的CHI3L1构建体) (human, UniProt P36222 22-383); assay: as above
T2 construct: Deletion construct, overexpressed in 293T cells from pcDNA3.1, acetone-fixed; not shown: 6his tag

| Binder | binding result [1] | binding result [2] | binding result [3] |
| --- | --- | --- | --- |
| 人CHI3L1单克隆抗体1D7(杂交瘤细胞1D7-C5-D5培养上清) (antibody, V domains shown, Tested as culture supernatant; also called 1D7杂交瘤细胞上清; 阳性杂交瘤细胞上清) VH: EVQLLETGGGLVQPGGSRGLSCEGSGFTFSGFWMSWVRQTPGKTLEWIGDINSDGSTINYAPSIKDRFTIFRDNDKSTLYLQMSNVRSEDTATYFCMRYKGAHWGQGTLVTVSA VL: not shown | binds | – | – |
| 重组单克隆抗体1D7(1D7m2a + 1D7mk，293T细胞上清) (antibody, V domains shown, VH cloned into pFUSE-CHIg-m2a (mouse IgG2a constant region of the vector), VL into pFUSE2ss-CLIg-mk (mouse kappa); Tested as 293T culture supernatant; also called 重组1D7单克隆抗体; 重组单克隆细胞上清) VH: EVQLLETGGGLVQPGGSRGLSCEGSGFTFSGFWMSWVRQTPGKTLEWIGDINSDGSTINYAPSIKDRFTIFRDNDKSTLYLQMSNVRSEDTATYFCMRYKGAHWGQGTLVTVSA VL: not shown | – | binds | no binding |

From patent CN115894698A (SHAANXI MYBIOTECH CO LTD, dated 2023)
